Assay results taken from article PMC4522599.
One block for each binder: values may come before it.

Legend:
[1] = molecular target: In trans activated C25A-cathepsin S (human); experiment: surface acoustic wave biosensor (sam5BLUE); C25A-cathepsin S coupled by EDC/NHS to a short-chain COOH sensor chip; untreated Bet v 1 injected at increasing concentrations (5 or 10 to 100 μM); 20 mM imidazole pH 6.7, 50 mM NaCl; apparent KD from kobs by linear regression
[2] = molecular target: In trans activated C25A-cathepsin S (human); experiment: surface acoustic wave biosensor (sam5BLUE); C25A-cathepsin S immobilized; heat-destabilized Bet v 1 (10 min at 60 °C, spin-filtered) injected, 1a at 10 to 100 μM, 1d at 2.5 to 40 μM; pH 6.7

- Kd [1]: 21.5 µM
B1: Bet v 1a (Bet v 1.0101), major birch pollen allergen (natural protein)
chain: GVFNYETETTSVIPAARLFKAFILDGDNLFPKVAPQAISSVENIEGNGGPGTIKKISFPEGFPFKYVKDRVDEVDHTNFKYNYSVIEGGPIGDTLEKISNEIKIVATPDGGSILKISNKYHTKGDHEVKAEQVKASKEMGETLLRAVESYLLAHSDAYN

- Kd [1]: 5.4 µM
- fold reduction in affinity against untreated Bet v 1d [2]: 5 fold
B2: Bet v 1d (Bet v 1.0401), hypoallergenic isoform of the major birch pollen allergen (natural protein)
chain: MGVFNYEIETTSVIPAARLFKAFILDGDNLVPKVAPQAISSVENIEGNGGPGTIKKINFPEGFPFKYVKDRVDEVDHTNFKYNYSVIEGGPVGDTLEKISNEIKIVATPDGGCVLKISNKYHTKGNHEVKAEQVKASKEMGETLLRAVESYLLAHSDAYN
